Drawing on publication PMC6220978, “Induced conformational changes activate the peptidoglycan synthase PBP1B” (Molecular Microbiology, 2018), this text covers Kd for two molecules.

What all share (conditions): both partners purified
One assay addresses T1, PBP1B R109G (E. coli, UniProt P02919 46-844, R109G).
T1 construct: PBP1B, E. coli, residues 46-844, made by mutagenesis of pDML924; source: E. coli BL21(DE3), purified (membrane extract, HisTrap, thrombin, HiTrap SP ion exchange)
T1 sequence (looked up): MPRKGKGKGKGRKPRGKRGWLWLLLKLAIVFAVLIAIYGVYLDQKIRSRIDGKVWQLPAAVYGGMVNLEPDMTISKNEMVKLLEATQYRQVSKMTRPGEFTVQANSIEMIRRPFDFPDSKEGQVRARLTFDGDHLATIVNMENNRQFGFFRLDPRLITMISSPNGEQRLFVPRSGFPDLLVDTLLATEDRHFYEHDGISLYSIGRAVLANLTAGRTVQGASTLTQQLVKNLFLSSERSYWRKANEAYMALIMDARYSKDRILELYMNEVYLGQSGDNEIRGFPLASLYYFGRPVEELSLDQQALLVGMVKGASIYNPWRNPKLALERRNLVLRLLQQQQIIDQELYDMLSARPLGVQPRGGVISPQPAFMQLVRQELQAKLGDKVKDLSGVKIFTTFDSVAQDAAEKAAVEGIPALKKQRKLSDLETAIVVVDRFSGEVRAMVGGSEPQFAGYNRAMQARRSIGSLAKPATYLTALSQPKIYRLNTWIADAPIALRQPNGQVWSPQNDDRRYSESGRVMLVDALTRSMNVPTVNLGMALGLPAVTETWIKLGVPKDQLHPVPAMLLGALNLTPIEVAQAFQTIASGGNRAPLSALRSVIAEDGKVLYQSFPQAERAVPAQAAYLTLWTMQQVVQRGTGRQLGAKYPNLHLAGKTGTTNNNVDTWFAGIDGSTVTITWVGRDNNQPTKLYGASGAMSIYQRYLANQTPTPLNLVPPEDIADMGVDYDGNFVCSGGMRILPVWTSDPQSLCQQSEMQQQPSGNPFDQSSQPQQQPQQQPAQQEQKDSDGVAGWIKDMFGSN
Kind of assay: SPR; PBP1B versions immobilised to the chip surface; CpoB versions injected from either 3.9 nM to 2 μM or from 78 nM to 40 μM; apparent KD by non-linear regression, at least three independent experiments. (In SPR one partner is held on a chip, and binding of the other changes the refractive index at the surface.)

In a further assay the target is T2, PBP1B N112G (E. coli, UniProt P02919 46-844, N112G).
T2 construct: PBP1B, E. coli, residues 46-844, made by mutagenesis of pDML924; source: E. coli BL21(DE3), purified (membrane extract, HisTrap, thrombin, HiTrap SP ion exchange)
T2 sequence (looked up): T1 sequence (looked up) with G64R, N67G
Described as above.

In the next assay the target is T3, PBP1B D160C/K437C (E. coli, UniProt P02919 46-844, D160C | K437C).
T3 construct: PBP1B, E. coli, residues 46-844, made by mutagenesis of pDML924; Disulphide bridge between C160 and C437 (no free thiol groups detected); reduced in the SPR assay with 2 mM TCEP; source: E. coli BL21(DE3), purified (membrane extract, HisTrap, thrombin, HiTrap SP ion exchange)
T3 sequence (looked up): T1 sequence (looked up) with G64R, D115C, K392C
Kind of assay: SPR; reducing conditions: 2 mM TCEP in the SPR running buffer, immobilised PBP1B versions incubated in it for 30 min before the assay; LpoB injected from 19.5 nM to 10 μM; apparent KD.

Numbering of substitutions follows the chain as printed.

B1: CpoB (full length) (natural protein, E. coli, UniProt P45955 27-263, looked up)
chain: QAPISSVGSGSVEDRVTQLERISNAHSQLLTQLQQQLSDNQSDIDSLRGQIQENQYQLNQVVERQKQILLQIDSLSSGGAAAQSTSGDQSGAAASTTPTADAGTANAGAPVKSGNANTDYNAAIALVQDKSRQDDAMVAFQNFIKNYPDSTYLPNANYWLGQLNYNKGKKDDAAYYFASVVKNYPKSPKAADAMFKVGVIMQDKGDTAKAKAVYQQVISKYPGTDGAKQAQKRLNAM
notes: CpoB, E. coli; The coiled-coil construct begins at residue 27, so the purified 'full length' protein may lack the signal peptide (surmise); source: E. coli BL21(DE3), purified (HisTrap, Superdex 200), as in Gray et al. 2015
Take B1: the Kd with PBP1B R109G was found to be 70 nM; with PBP1B N112G, 89 nM.

B2: LpoB (natural protein, E. coli)
chain: VGQREPAPVEEVKPAPEQPAEPQQPVPTVPSVPTIPQQPGPIEHEDQTAPPAPHIRHYDWNGAMQPMVSKMLGADGVTAGSVLLVDSVNNRTNGSLNAAEATETLRNALANNGKFTLVSAQQLSMAKQQLGLSPQDSLGTRSKAIGIARNVGAHYVLYSSASGNVNAPTLQMQLMLVQTGEIIWSGKGAVSQQ
notes: LpoB, E. coli; also called lipoprotein LpoB; source: E. coli BL21(DE3), purified (HisTrap, Superdex 200), as in Egan et al. 2014
Take B2: the Kd with PBP1B D160C/K437C is 2040 nM.
